Laboratory results as given in patent US7267960 (Amgen, dated 2007).

Tests used:
[1] = target: T1, human LDCAM, full length membrane-bound, expressed on transfected or transduced cells (human, UniProt Q9BY67 39-442); experiment: flow cytometry on EL4 cells transduced with human LDCAM (legend of FIG. 15)
T1 construct: also called B7L-1 counter receptor; Igsf4
T1 sequence: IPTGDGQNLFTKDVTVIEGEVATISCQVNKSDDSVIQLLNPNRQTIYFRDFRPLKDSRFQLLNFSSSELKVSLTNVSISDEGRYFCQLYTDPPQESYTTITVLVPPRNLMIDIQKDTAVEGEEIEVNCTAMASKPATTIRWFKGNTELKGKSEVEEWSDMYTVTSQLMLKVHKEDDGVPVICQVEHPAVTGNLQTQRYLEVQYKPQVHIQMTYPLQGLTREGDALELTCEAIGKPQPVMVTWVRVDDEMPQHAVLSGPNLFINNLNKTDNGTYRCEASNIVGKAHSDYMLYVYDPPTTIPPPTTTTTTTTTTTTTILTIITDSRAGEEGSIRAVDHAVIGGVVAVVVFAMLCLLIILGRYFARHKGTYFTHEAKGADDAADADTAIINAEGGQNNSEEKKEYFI

[2] = target: T2, human Necl1 expressed on transduced EL4 cells (human, UniProt Q8N126 25-398); experiment: flow cytometry on transduced EL4 cells
T2 construct: whole, on cells
T2 sequence (looked up): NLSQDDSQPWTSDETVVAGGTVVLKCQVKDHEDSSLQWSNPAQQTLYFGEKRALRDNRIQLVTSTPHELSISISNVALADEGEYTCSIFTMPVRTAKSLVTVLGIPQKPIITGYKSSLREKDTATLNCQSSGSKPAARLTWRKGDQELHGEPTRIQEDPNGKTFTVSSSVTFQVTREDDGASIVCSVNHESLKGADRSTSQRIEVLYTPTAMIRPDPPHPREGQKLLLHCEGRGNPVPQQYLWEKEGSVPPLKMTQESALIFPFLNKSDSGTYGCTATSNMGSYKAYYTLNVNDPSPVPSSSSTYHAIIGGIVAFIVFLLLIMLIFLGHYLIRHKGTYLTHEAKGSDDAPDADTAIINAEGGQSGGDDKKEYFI

B1: soluble recombinant human CRTAM-Fc (Fc fusion)
chain: SLTNHTETITVEEGQTLTLKCVTSLRKNSSLQWLTPSGFTIFLNEYPALKNSKYQLLHHSANQLSITVPNVTLQDEGVYKCLHYSDSVSTKEVKVIVLATPFKPILEASVIRKQNGEEHVVLMCSTMRSKPPPQITWLLGNSMEVSGGTLHEFETDGKKCNTTSTLIILSYGKNSTVDCIIRHRGLQGRKLVAPFRFEDLVTDEETASDALERNSLSTQDPQQPTSTVSVTEDSSTSEIDKEEKEQTTQDPDLTTEANPQYLGLARKKSG
notes: also called huCRTAM-Fc; not shown: Fc part not described
[1]
  binding result: binds
[2]
  binding result: no binding
